± gives the uncertainty stated by the source.
Assay: protein stability index of a GFP-peptide fusion (yeast GPS) (PSI 1-4); higher = more stable; sorted into four equal gates, so the index is relative within each strain
Summary of the method: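 Tiled 17-residue peptides from yeast proteins were fused downstream of GFP on a plasmid that also expresses Cherry, and the pooled library was carried in yeast. Mid-log cultures grown in leucine-free medium were sorted into four equal gates by GFP/Cherry fluorescence ratio. Plasmids from each gate were PCR-amplified and Illumina-sequenced, and reads were assigned to strains by barcodes. Each peptide's protein stability index is the sum, over gates, of the gate's read frequency multiplied by its gate number.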

Row | Sequence | protein stability index (doa10∆) | protein stability index (pdr5∆) | protein stability index (san1∆) | protein stability index (ubr1∆)
1 | KSNTIPVTSIPSTNKKL [GAL11] | 2.67 ± 0.076 | 2.87 ± 0.073 | 2.9 ± 0.044 | 2.96 ± 0.057
2 | DGTAQLSNNKTDEEEQL [YJR042W/NUP85] | 2.77 ± 0.25 | 3.16 ± 0.14 | 3.27 ± 0.15 | 3.18 ± 0.098
3 | GSVFNMNGNTNANTVFA [YOR098C/NUP1] | 2.29 ± 0.095 | 3 ± 0.12 | 3.01 ± 0.17 | 2.44 ± 0.066
4 | QDKSKKIMNVTTDSLTK [YMR129W/POM152] | 3.25 ± 0.064 | 2.97 ± 0.06 | 3.1 ± 0.034 | 3.21 ± 0.044
5 | DHASIRRGYQVYREVCA [CYT1] | 1.87 ± 0.06 | 1.5 ± 0.052 | 1.27 ± 0.09 | 1.71 ± 0.036
6 | VDKELLEPGCSVLLHHK [RPT2] | 2.95 ± 0.16 | 2.8 ± 0.095 | 2.51 ± 0.17 | 2.66 ± 0.12
7 | AENMLEELRGQQTEHET [SMC4] | 3.02 ± 0.13 | 2.97 ± 0.2 | 3.32 ± 0.069 | 3.4 ± 0.1
8 | PNINTWQQVTALAQQKL [GAL11] | 2.2 ± 0.058 | 2.23 ± 0.064 | 2.11 ± 0.085 | 2.08 ± 0.054
9 | LSAVAQAESMKFKLLNG [RPS3] | 3.06 ± 0.1 | 3.21 ± 0.1 | 2.83 ± 0.12 | 3.09 ± 0.079
10 | SAKQTAPNNSNGGSEEE [MED7] | 3.45 ± 0.27 |  |  | 
11 | NFEKILLTCYELEKKYH [SRB8] | 1.98 ± 0.1 | 2.34 ± 0.1 |  | 3.71 ± 0.21
12 | PKLLDALNKISKYYPGV [SNU114] | 3.08 ± 0.076 | 2.37 ± 0.072 | 2.8 ± 0.065 | 2.88 ± 0.044
13 | AGFTHKLSNWLFGWNDL [YDL088C/ASM4] | 2.69 ± 0.065 | 3.06 ± 0.059 | 2.9 ± 0.063 | 2.93 ± 0.037
14 | LSVMCGCGTVKRFNIGA [RPR2] | 3.16 ± 0.21 | 2.97 ± 0.12 | 3.14 ± 0.14 | 2.07 ± 0.18
15 | SHVNKYGLIRGLKFASF [PRP8] | 1.83 ± 0.067 | 1.85 ± 0.065 | 1.91 ± 0.089 | 1.34 ± 0.03
16 | KIMQEATQSGGVRPFGV [PRE8] |  | 2.45 ± 0.29 |  | 2.95 ± 0.1
17 | LPYERHMISQEGIKETQ [SWI1] | 1.22 ± 0.066 | 1.23 ± 0.073 | 1.3 ± 0.14 | 1.27 ± 0.065
18 | LSIELEGGKNQAELLQL [YJL039C/NUP192] | 2.85 ± 0.14 | 3.11 ± 0.099 | 3.31 ± 0.21 | 2.67 ± 0.11
19 | HKHALHGTAKALAAAKK [RPL29] | 2.398 ± 0.023 | 2.425 ± 0.02 | 2.24 ± 0.023 | 2.323 ± 0.018
20 | VEDTLHVNKRKRVSGTS [YOR098C/NUP1] | 1.42 ± 0.078 | 1.92 ± 0.13 | 1.73 ± 0.15 | 1.52 ± 0.077
21 | CLTMFEDRNESVNIAFA [ECM29] | 2.42 ± 0.13 | 2.52 ± 0.094 | 2.81 ± 0.11 | 2.5 ± 0.073
22 | YENIPIYATFLNESDCL [YDL116W/NUP84] | 2.16 ± 0.098 | 2.54 ± 0.15 | 2.15 ± 0.15 | 2.62 ± 0.1
23 | RPKCGDCGSALQGISTL [RPL34A] | 1.34 ± 0.08 | 1.42 ± 0.067 | 1.32 ± 0.1 | 1.41 ± 0.052
24 | NSRNAIRKLVKNGTIVK [RPL19A] | 2.84 ± 0.07 | 2.9 ± 0.063 | 2.89 ± 0.057 | 2.79 ± 0.066
25 | QPDANKKKRSRTSATRE [ISW2] | 3.46 ± 0.14 | 3.38 ± 0.079 | 3.5 ± 0.057 | 3.16 ± 0.1

Row | Sequence | protein stability index (doa10∆) | protein stability index (pdr5∆) | protein stability index (san1∆) | protein stability index (ubr1∆)
26 | SVRTAVFSALKNLISRI [ECM29] | 2.34 ± 0.049 | 2.31 ± 0.045 | 2.03 ± 0.064 | 2.53 ± 0.035
27 | ARTATVSKKWAAAAVCE [RPL14A] | 2.9 ± 0.089 | 3.21 ± 0.084 | 3.58 ± 0.11 | 2.71 ± 0.066
28 | AELIPELYSFQQLVDSE [SNF12] | 1.79 ± 0.08 | 2.12 ± 0.067 | 2.67 ± 0.057 | 1.87 ± 0.047
29 | DPVLDWRKSDRELTKNI [SIR4] | 2.89 ± 0.096 | 2.2 ± 0.083 | 2.52 ± 0.16 | 2.26 ± 0.08
30 | DIDDELNELETLIKKKQ [SMC2] | 3.31 ± 0.16 | 3.11 ± 0.1 | 2.99 ± 0.078 | 3.24 ± 0.078
31 | LHKRLHGVSFKKRAPRA [RPL31A] | 2.9 ± 0.12 | 2.73 ± 0.13 | 3 ± 0.16 | 3.17 ± 0.11
32 | MKPKAEKESDDGLLEYL [SMC4] | 3.58 ± 0.17 | 3.37 ± 0.16 | 3.31 ± 0.18 | 
33 | LKIYKVGDIVDIKANGS [RPL21B] | 2.18 ± 0.058 | 1.88 ± 0.05 | 1.83 ± 0.062 | 2.08 ± 0.03
34 | SSFTFGSTTIEKKNDEN [YLR335W/NUP2] | 2.79 ± 0.084 | 2.49 ± 0.094 | 3.08 ± 0.063 | 2.99 ± 0.046
35 | VILAKNENETRDKVCKQ [PGD1] | 3.45 ± 0.18 | 2.96 ± 0.12 |  | 
36 | GKAKGDIPGVRFKVVKV [RPS23A] | 3.32 ± 0.19 | 3.42 ± 0.18 |  | 
37 | SGGEREIQRTMLELLNQ [RPT2] | 3.46 ± 0.15 | 3.74 ± 0.2 |  | 3.15 ± 0.18
38 | LICSIGLHSSEYKLRSL [ECM29] | 2.03 ± 0.046 | 2.41 ± 0.05 | 2.26 ± 0.07 | 2.56 ± 0.038
39 | GMGGGMPDMNEMMKMMQ [SRP54] | 3.17 ± 0.21 | 3.51 ± 0.23 | 3.58 ± 0.083 | 3.35 ± 0.081
40 | LGQLYVTMGAKDKLREF [RPN6] | 3.33 ± 0.12 | 3.13 ± 0.11 | 3.08 ± 0.078 | 3.12 ± 0.069
41 | FEQKGSQTTTNDSKEES [YLR335W/NUP2] | 3.27 ± 0.12 | 3.13 ± 0.077 | 2.98 ± 0.11 | 3.23 ± 0.05
42 | LSEDELRELDVELIESK [SMC4] | 3.33 ± 0.18 | 3.72 ± 0.24 | 3.4 ± 0.11 | 3.23 ± 0.073
43 | SADYEILYEIRALYTPF [YDL116W/NUP84] | 1.86 ± 0.073 | 2.21 ± 0.068 | 2.5 ± 0.07 | 2.06 ± 0.066
44 | DEAKEKQLVEKAELRLA [ECM29] |  | 3.26 ± 0.24 |  | 3.27 ± 0.16
45 | TVVTVVSTAKFSGKYLK [RPL22A] | 3.18 ± 0.12 | 3.13 ± 0.083 | 3.38 ± 0.17 | 2.96 ± 0.065
46 | KQEQEEKIKSKKINRRN [YCG1] | 3.4 ± 0.18 | 2.87 ± 0.17 | 2.75 ± 0.29 | 3.22 ± 0.15
47 | QKRNAHGYFLQDKEKID [ITC1] | 3.32 ± 0.098 | 3.38 ± 0.071 | 3.28 ± 0.048 | 3.42 ± 0.056
48 | LSINKNFINQEDEGEER [RPC17] |  | 3.29 ± 0.28 |  | 
49 | MRSKLEKLTLVTLSEIY [CSN9] | 1.56 ± 0.05 | 1.79 ± 0.035 | 1.79 ± 0.07 | 1.79 ± 0.051
